Values quoted from earlier work, collected in PMC3683042, “Solution Structure and Peptide Binding of the PTB Domain from the AIDA1 Postsynaptic Signaling Scaffolding Protein” (PLoS ONE, 2013).

Tests used:
[1] = biological target: APP 11 aa peptide (Homo sapiens) (UniProt P05067)
[2] = biological target: APP 32 aa peptide (Homo sapiens) (UniProt P05067)
[3] = biological target: APP 14 aa peptide (Homo sapiens) (UniProt P05067)

Chain of Fe65 PTB2 (O00213 542-699): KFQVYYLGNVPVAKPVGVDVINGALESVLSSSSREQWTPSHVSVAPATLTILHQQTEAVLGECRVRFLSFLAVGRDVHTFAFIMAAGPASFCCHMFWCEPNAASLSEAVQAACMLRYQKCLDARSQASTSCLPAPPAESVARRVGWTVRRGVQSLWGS
Chain of APP 32 aa peptide (Homo sapiens) (P05067 739-770): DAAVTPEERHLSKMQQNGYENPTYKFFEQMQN
Chain of X11 PTB (Q02410 457-643): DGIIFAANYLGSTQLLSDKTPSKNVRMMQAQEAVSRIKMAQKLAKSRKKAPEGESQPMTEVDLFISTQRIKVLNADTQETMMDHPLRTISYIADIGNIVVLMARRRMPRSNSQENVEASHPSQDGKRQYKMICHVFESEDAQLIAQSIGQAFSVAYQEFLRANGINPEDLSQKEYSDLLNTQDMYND
Chain of APP 11 aa peptide (Homo sapiens) (P05067 whole entry, looked up, tested part not stated): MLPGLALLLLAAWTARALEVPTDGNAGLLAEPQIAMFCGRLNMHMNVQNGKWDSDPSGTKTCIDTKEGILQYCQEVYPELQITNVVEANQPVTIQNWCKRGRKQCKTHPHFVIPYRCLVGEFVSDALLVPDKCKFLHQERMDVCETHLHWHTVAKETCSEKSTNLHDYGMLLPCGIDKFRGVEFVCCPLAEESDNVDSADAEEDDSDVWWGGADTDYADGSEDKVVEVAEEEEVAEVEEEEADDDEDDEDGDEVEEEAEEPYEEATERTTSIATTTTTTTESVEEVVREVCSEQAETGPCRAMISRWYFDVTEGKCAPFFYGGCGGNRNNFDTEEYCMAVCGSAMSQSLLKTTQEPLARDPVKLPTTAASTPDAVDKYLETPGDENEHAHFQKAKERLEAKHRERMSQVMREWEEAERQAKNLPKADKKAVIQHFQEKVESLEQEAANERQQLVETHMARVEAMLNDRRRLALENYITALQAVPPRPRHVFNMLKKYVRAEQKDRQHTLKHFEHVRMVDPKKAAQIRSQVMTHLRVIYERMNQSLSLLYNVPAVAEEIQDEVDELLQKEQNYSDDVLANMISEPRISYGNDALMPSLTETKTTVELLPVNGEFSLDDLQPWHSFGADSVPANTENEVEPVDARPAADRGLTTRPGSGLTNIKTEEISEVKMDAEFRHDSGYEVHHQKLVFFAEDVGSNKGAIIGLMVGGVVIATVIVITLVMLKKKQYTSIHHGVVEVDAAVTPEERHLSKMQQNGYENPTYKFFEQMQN

Row | Substance | Kd [1] [nM] | Kd [2] [nM] | Kd [3] [nM]
1 | Fe65 PTB2 (from UniProt O00213) | 100000 | 200 | 
2 | X11 PTB (from UniProt Q02410) |  |  | 300
